Data taken from patent US10851403B2, “Cyclin-dependent kinase substrate” (SYSMEX CORPORATION, priority 2017, dated 2020).
No end group written: not given here. *: point of attachment. Biotin = O=C1N[C@H]2[C@H](CS[C@H]2CCCCC(=O)*)N1; Ahx = NCCCCCC(=O)O

Legend:
[1] = target: T1, CDK4/cyclin D3 (Homo sapiens, UniProt P11802); assay: CDK reactivity test 3 (Test Example 3); assay type: biochemical; details: luminescence intensity when using CDK6 set as 100%, HRP-labeled anti-FITC antibody
T1 construct: purchased SignalChem
T1 sequence (P11802 whole entry): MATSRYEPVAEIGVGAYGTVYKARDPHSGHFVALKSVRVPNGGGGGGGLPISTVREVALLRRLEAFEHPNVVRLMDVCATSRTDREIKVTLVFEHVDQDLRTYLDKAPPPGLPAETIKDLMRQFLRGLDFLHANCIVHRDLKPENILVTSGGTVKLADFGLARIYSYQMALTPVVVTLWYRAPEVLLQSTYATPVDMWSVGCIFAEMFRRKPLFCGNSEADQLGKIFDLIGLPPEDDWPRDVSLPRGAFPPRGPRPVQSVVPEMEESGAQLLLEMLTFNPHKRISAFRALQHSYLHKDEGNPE
T1 sequence (P30281 whole entry partner): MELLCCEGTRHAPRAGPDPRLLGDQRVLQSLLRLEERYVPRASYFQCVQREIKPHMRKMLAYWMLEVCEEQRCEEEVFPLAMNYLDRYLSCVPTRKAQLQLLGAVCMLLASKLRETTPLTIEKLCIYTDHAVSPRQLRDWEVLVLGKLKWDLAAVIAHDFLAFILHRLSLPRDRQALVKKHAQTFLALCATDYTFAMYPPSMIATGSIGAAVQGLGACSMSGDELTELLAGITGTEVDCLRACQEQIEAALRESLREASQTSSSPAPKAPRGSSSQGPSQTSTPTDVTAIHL
Protocol: The reactivity of the polypeptides obtained in Production Example 3 to CDK1, CDK2, CDK4 and CDK6 was examined. Specifically, it was performed as follows.
In a well of a hydrophilic filter plate, 30 μL of a CDK solution (composition: 10 μg/mL CDK/cyclin complex, 1% BSA, triethanolamine buffer solution (pH 7.5)) containing CDK1/cyclin A2, CDK2/cyclin E1, CDK4/cyclin D3 or CDK6/cyclin D3 (all manufactured by SignalChem) and 30 μL of a kinase reaction solution (composition: 4 μg/mL substrate peptide, 50 mM HEPES-NaOH buffer solution (pH 7.4), 15 mM MgCl2, 2 mM ATP-γS) containing any of Comparative Polypeptides 2 to 4 as a substrate peptide were mixed, and the plate was incubated at 37° C. for 1 hour with stirring at 900 rpm using a constant temperature shaker. The reaction solution was recovered by centrifugation (4° C., 2000 rpm, 5 minutes), and 28.6 μL of the reaction solution was dispensed into each well of a PCR plate. […] Luminescence was detected with a luminescence plate reader, and the luminescence intensity was measured. For each polypeptide, the relative value of the luminescence intensity when using other CDKs, in the case where the luminescence intensity when using CDK6 was set as 100%, was calculated.

[2] = target: T2, CDK6/cyclin D3 (Homo sapiens, UniProt Q00534); assay: CDK reactivity test 6 (Test Example 6), automated immunoassay system HISCL-800; assay type: biochemical; details: 0.01 to 10 μg/mL CDK1/A2, CDK2/E1, CDK4/D3 or CDK6/D3; ATP; anti-phospho-antibody; 42° C. 3 minutes
T2 construct: purchased SignalChem
T2 sequence (Q00534 whole entry): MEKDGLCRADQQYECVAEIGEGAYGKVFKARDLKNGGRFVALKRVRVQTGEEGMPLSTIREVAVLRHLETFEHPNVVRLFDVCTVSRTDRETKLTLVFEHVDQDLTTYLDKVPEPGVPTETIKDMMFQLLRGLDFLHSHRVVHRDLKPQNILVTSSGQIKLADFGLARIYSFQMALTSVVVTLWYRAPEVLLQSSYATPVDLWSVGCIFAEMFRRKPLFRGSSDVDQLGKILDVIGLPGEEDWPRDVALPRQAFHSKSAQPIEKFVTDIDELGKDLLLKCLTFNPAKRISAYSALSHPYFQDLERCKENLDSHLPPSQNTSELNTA
T2 sequence (P30281 whole entry partner): as the sequence (P30281 whole entry partner) above
Protocol: The reactivity of the polypeptide (Polypeptide 28) obtained in Production Example 5 to CDK1, CDK2, CDK4 and CDK6 was examined using an automated immunoassay system (manufactured by Sysmex Corporation, HISCL-800). Specifically, it was performed as follows.
In a well of a plate, 30 μL of a CDK solution (composition: 0.01 to 10 μg/mL CDK/cyclin complex, 1% BSA, triethanolamine buffer solution (pH 7.5)) containing CDK1/cyclin A2, CDK2/cyclin E1, CDK4/cyclin D3 or CDK6/cyclin D3 (all manufactured by SignalChem) and 30 μL of a kinase reaction solution (composition: 4 μg/mL substrate peptide, 50 mM HEPES-NaOH buffer solution (pH 7.4), 15 mM MgCl2, 16 mM ATP) containing Polypeptide 28 as a substrate peptide were mixed, and the plate was incubated at 42° C. for 3 minutes. 30 μL (containing 0.15 μg of magnetic St-Ab beads) of a HISCL HBsAg R2 reagent (manufactured by Sysmex Corporation) was added to the well, and the plate was incubated at 42° C. for 2 minutes. The beads in the well were precipitated using a magnet, and the supernatant was removed. Then, a HISCL washing solution (manufactured by Sysmex Corporation) was added, and the beads were washed by shaking several times. […] Luminescence was detected with a luminometer, and the luminescence intensity was measured.

Row | Sequence | relative value of the luminescence intensity [1] | specific detection of CDK (luminescence intensity versus CDK concentration, FIG. 3) [2]
1 | PYKISEGLPTPAKMAPRSRI (PYKISEGLPTPAKMAPRSRI-NH2; not fully specified (N-terminus)) [Comparative Polypeptide 4, Comparative Polypeptide 3 with the CDK4 phosphorylation site residue replaced with alanine; N-terminal biotin] | Not detected | –
2 | GAPWSPDPWDDGGGG ({Biotin-Ahx}-GAPWSPDPWDDGGGG) [Polypeptide 28, acidic-residue mutant of Polypeptide 3, N-terminal biotin via aminohexane linker] | – | a substrate capable of specifically detecting CDK6
